Experimental data from US9618524B2, “Method, composition, isolation and identification of a plaque particle and related biomarker” (Plaxgen Inc., priority 2012, dated 2017).

Experiments:
Assay in all cases: Mass spectroscopy proteomics, semi-quantitative binding affinity of serum proteins (plaqueproteome, Table 2)
Conditions in all cases: higher number = stronger affinity
[1] = test system: Low density cholesterol (Chl small) plaque particles; parameters: species or system human
Method in brief: (§1)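 Read-out is MS/MS protein identification (Sequest, strict trypsin, 20 ppm parent tolerance; Scaffold probabilities) of serum proteins bound to flow-sorted cholesterol plaque particles. These particles formed when 50% atherosclerotic serum was incubated with 30 μg cholesterol aggregates for 1 hr at 37° C.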

[2] = test system: High Density cholesterol (Chl Large) plaque particles; parameters: species or system human
Method in brief: as §1

[3] = molecular target: T1, Abeta-42 plaque particles (Homo sapiens, UniProt P05067)
T1 construct: Abeta 1-42
Method in brief: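 AD patient serum or plasma (50% in PBS) was incubated with Abeta-42 aggregates (30 μg) for 1 h at 37 °C, then stained with Thioflavin S for 30 min. Labeled particles were FACS-sorted, trypsin/Lys-C digested overnight and analyzed by MS/MS. Sequest searched human UniProt; Scaffold/Protein Prophet validated the identifications.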

[4] = molecular target: T2, alpha-synuclein plaque particles (Homo sapiens, UniProt P37840)
T2 construct: 140 amino acids polypeptide
Method in brief: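 AD-subject plasma or serum (800 μL of 50%) mixed with 30 μg preformed alpha-synuclein aggregates for 1 h at 37 °C; Thioflavin S-positive particles isolated by flow sorting. After reduction, acrylamide alkylation and overnight tryptic digestion, serum proteins identified by MS/MS with Sequest and Scaffold.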

[5] = test system: Tau plaque particles; parameters: species or system human
Method in brief: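 Serum or plasma proteins captured on Thioflavin S-labelled Tau plaque particles (Tau-74, Tau-275 oligomers preformed in PBS at 37° C for 2 h; 1 h co-incubation at 37° C) were isolated by FACS sorting, then tryptically digested and identified by MS/MS (Sequest, human UniProt, strict trypsin).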

Molecule	Semi-quantitative analysis of proteins binding to different plaque particles: Chl small [1]	Semi-quantitative analysis of proteins binding to different plaque particles: Chl Large [2]	Semi-quantitative analysis of proteins binding to different plaque particles: Abeta-42 [3]	Semi-quantitative analysis of proteins binding to different plaque particles: Synuclein [4]	Semi-quantitative analysis of proteins binding to different plaque particles: Tau [5]
Inter-alpha-trypsin inhibitor heavy chain H2 (protein) SLPGESEEMMEEVDQVTLYSYKVQSTITSRMATTMIQSKVVNNSPQPQNVVFDVQIPKGAFISNFSMTVDGKTFRSSIKEKTVGRALYAQARAKGKTAGLVRSSALDMENFRTEVNVLPGAKVQFELHYQEVKWRKLGSYEHRIYLQPGRLAKHLEVDVWVIEPQGLRFLHVPDTFEGHFDGVPVISKGQQKAHVSFKPTVAQQRICPNCRETAVDGELVVLYDVKREEKAGELEVFNGYFVHFFAPDNLDPIPKNILFVIDVSGSMWGVKMKQTVEAMKTILDDLRAEDHFSVIDFNQNIRTWRNDLISATKTQVADAKRYIEKIQPSGGTNINEALLRAIFILNEANNLGLLDPNSVSLIILVSDGDPTVGELKLSKIQKNVKENIQDNISLFSLGMGFDVDYDFLKRLSNENHGIAQRIYGNQDTSSQLKKFYNQVSTPLLRNVQFNYPHTSVTDVTQNNFHNYFGGSEIVVAGKFDPAKLDQIESVITATSANTQLVLETLAQMDDLQDFLSKDKHADPDFTRKLWAYLTINQLLAERSLAPTAAAKRRITRSILQMSLDHHIVTPLTSLVIENEAGDERMLADAPPQDPSCCSGALYYGSKVVPDSTPSWANPSPTPVISMLAQGSQVLESTPPPHVMRVEND	12	10	9	13	14
Ig mu chain C region (protein) GSASAPTLFPLVSCENSPSDTSSVAVGCLAQDFLPDSITFSWKYKNNSDISSTRGFPSVLRGGKYAATSQVLLPSKDVMQGTDEHVVCKVQHPNGNKEKNVPLPVIAELPPKVSVFVPPRDGFFGNPRKSKLICQATGFSPRQIQVSWLREGKQVGSGVTTDQVQAEAKESGPTTYKVTSTLTIKESDWLGQSMFTCRVDHRGLTFQQNASSMCVPDQDTAIRVFAIPPSFASIFLTKSTKLTCLVTDLTTYDSVTISWTRQNGEAVKTHTNISESHPNATFSAVGEASICEDDWNSGERFTCTVTHTDLPSPLKQTISRPKGVALHRPDVYLLPPAREQLNLRESATITCLVTGFSPADVFVQWMQRGQPLSPEKYVTSAPMPEPQAPGRYFAHSILTVSEEEWNTGETYTCVVAHEALPNRVTERTVDKSTGKPTLYNVSLVMSDTAGTCY	10	10	5	8	10
Cluster of Ig mu chain C region (protein, UniProt P01871 1-474, looked up) Immunoglobulin heavy constant …: GSASAPTLFPLVSCENSPSDTSSVAVGCLAQDFLPDSITFSWKYKNNSDISSTRGFPSVLRGGKYAATSQVLLPSKDVMQGTDEHVVCKVQHPNGNKEKNVPLPVIAELPPKVSVFVPPRDGFFGNPRKSKLICQATGFSPRQIQVSWLREGKQVGSGVTTDQVQAEAKESGPTTYKVTSTLTIKESDWLGQSMFTCRVDHRGLTFQQNASSMCVPDQDTAIRVFAIPPSFASIFLTKSTKLTCLVTDLTTYDSVTISWTRQNGEAVKTHTNISESHPNATFSAVGEASICEDDWNSGERFTCTVTHTDLPSPLKQTISRPKGVALHRPDVYLLPPAREQLNLRESATITCLVTGFSPADVFVQWMQRGQPLSPEKYVTSAPMPEPQAPGRYFAHSILTVSEEEWNTGETYTCVVAHEALPNRVTERTVDKSTEGEVSADEEGFENLWATASTFIVLFLLSLFYSTTVTLFKVK	10	10	5	9	11
Inter-alpha-trypsin inhibitor heavy chain H4 (protein) EKNGIDIYSLTVDSRVSSRFAHTVVTSRVVNRANTVQEATFQMELPKKAFITNFSMIIDGMTYPGIIKEKAEAQAQYSAAVAKGKSAGLVKATGRNMEQFQVSVSVAPNAKITFELVYEELLKRRLGVYELLLKVRPQQLVKHLQMDIHIFEPQGISFLETESTFMTNQLVDALTTWQNKTKAHIRFKPTLSQQQKSPEQQETVLDGNLIIRYDVDRAISGGSIQIENGYFVHYFAPEGLTTMPKNVVFVIDKSGSMSGRKIQQTREALIKILDDLSPRDQFNLIVFSTEATQWRPSLVPASAENVNKARSFAAGIQALGGTNINDAMLMAVQLLDSSNQEERLPEGSVSLIILLTDGDPTVGETNPRSIQNNVREAVSGRYSLFCLGFGFDVSYAFLEKLALDNGGLARRIHEDSDSALQLQDFYQEVANPLLTAVTFEYPSNAVEEVTQNNFRLLFKGSEMVVAGKLQDRGPDVLTATVSGKLPTQNITFQTESSVAEQEAEFQSPKYIFHNFMERLWAYLTIQQLLEQTVSASDADQQALRNQALNLSLAYSFVTPLTSMVVTKPDDQEQSQVAEKPMEGESRNRNVHSGSTFFKYYLQGAKIPKPEASFSPRRGWNRQAGAAGSRMNFRPGVLSSRQLGLPGPPDVPDHAAYHPFRRLAILPASAPPATSNPDPAVSRVMNMKIEETTMTTQTPAPIQAPSAILPLPGQSVERLCVDPRHRQGPVNLLSDPEQGVEVTGQYEREKAGFSWIEVTFKNPLVWVHASPEHVVVTRNRRSSAYKWKETLFSVMPGLKMTMDKTGLLLLSDPDKVTIGLLFWDGRGEGLRLLLRDTDRFSSHVGGTLGQFYQEVLWGSPAASDDGRRTLRVQGNDHSATRERRLDYQEGPPGVEISCWSVEL	13	20	2	12	15
Alpha-1-antichymotrypsin (protein) HPNSPLDEENLTQENQDRGTHVDLGLASANVDFAFSLYKQLVLKAPDKNVIFSPLSISTALAFLSLGAHNTTLTEILKGLKFNLTETSEAEIHQSFQHLLRTLNQSSDELQLSMGNAMFVKEQLSLLDRFTEDAKRLYGSEAFATDFQDSAAAKKLINDYVKNGTRGKITDLIKDLDSQTMMVLVNYIFFKAKWEMPFDPQDTHQSRFYLSKKKWVMVPMMSLHHLTIPYFRDEELSCTVVELKYTGNASALFILPDQDKMEEVEAMLLPETLKRWRDSLEFREIGELYLPKFSISRDYNLNDILLQLGIEEAFTSKADLSGITGARNLAVSQVVHKAVLDVFEEGTEASAATAVKITLLSALVETRTIVRFNRPFLMIIVPTDTQNIFFMSKVTNPKQA	11	14	11	20	16
Isoform 2 of Inter-alpha-trypsin inhibitor heavy chain H4 (protein) EKNGIDIYSLTVDSRVSSRFAHTVVTSRVVNRANTVQEATFQMELPKKAFITNFSMIIDGMTYPGIIKEKAEAQAQYSAAVAKGKSAGLVKATGRNMEQFQVSVSVAPNAKITFELVYEELLKRRLGVYELLLKVRPQQLVKHLQMDIHIFEPQGISFLETESTFMTNQLVDALTTWQNKTKAHIRFKPTLSQQQKSPEQQETVLDGNLIIRYDVDRAISGGSIQIENGYFVHYFAPEGLTTMPKNVVFVIDKSGSMSGRKIQQTREALIKILDDLSPRDQFNLIVFSTEATQWRPSLVPASAENVNKARSFAAGIQALGGTNINDAMLMAVQLLDSSNQEERLPEGSVSLIILLTDGDPTVGETNPRSIQNNVREAVSGRYSLFCLGFGFDVSYAFLEKLALDNGGLARRIHEDSDSALQLQDFYQEVANPLLTAVTFEYPSNAVEEVTQNNFRLLFKGSEMVVAGKLQDRGPDVLTATVSGKLPTQNITFQTESSVAEQEAEFQSPKYIFHNFMERLWAYLTIQQLLEQTVSASDADQQALRNQALNLSLAYSFVTPLTSMVVTKPDDQEQSQVAEKPMEGESRNRNVHSAGAAGSRMNFRPGVLSSRQLGLPGPPDVPDHAAYHPFRRLAILPASAPPATSNPDPAVSRVMNMKIEETTMTTQTPACPSCSRSRAPAVPAPIQAPSAILPLPGQSVERLCVDPRHRQGPVNLLSDPEQGVEVTGQYEREKAGFSWIEVTFKNPLVWVHASPEHVVVTRNRRSSAYKWKETLFSVMPGLKMTMDKTGLLLLSDPDKVTIGLLFWDGRGEGLRLLLRDTDRFSSHVGGTLGQFYQEVLWGSPAASDDGRRTLRVQGNDHSATRERRLDYQEGPPGVEISCWSVEL	13	20	2	12	15
